Test results published in publication PMC5435347.

Target: YFP-MKT1 (Trypanosoma brucei) (UniProt Q587E3)
Test: co-IP; extracts of bloodstream-form trypanosomes immunoprecipitated with anti-GFP (GBP beads) for YFP-MKT1, Western blot for V5 or myc; 100-150 mM NaCl, 2 h at 4°C; with or without RNase; control cells without YFP-MKT1

UniProt Q587E3, sequence (Q587E3 whole entry): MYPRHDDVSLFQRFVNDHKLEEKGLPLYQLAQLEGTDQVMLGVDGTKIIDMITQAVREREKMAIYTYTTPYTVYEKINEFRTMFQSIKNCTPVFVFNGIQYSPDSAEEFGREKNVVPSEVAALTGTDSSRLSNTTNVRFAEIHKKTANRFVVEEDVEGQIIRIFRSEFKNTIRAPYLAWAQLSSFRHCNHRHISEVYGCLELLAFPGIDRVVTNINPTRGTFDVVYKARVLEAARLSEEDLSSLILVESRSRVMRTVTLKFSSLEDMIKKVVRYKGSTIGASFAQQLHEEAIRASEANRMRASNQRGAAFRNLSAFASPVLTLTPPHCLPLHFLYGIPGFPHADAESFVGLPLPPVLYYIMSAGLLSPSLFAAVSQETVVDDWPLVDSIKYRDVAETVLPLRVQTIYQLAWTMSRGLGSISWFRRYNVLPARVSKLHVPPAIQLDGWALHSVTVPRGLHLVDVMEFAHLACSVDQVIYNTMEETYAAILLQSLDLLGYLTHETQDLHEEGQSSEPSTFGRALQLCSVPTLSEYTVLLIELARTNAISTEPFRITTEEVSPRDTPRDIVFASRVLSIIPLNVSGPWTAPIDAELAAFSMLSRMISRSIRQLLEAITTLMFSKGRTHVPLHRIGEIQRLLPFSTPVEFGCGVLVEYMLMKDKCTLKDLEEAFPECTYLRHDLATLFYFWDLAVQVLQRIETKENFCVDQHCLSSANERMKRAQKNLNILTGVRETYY

proportion pulled down [%] | Substance
< 1 | V5-ZC3H32 (natural protein)
< 1 | ZC3H32-myc (natural protein)
